From paper PMC7268104, “WRKY Transcription Factor OsWRKY29 Represses Seed Dormancy in Rice by Weakening Abscisic Acid Response”

B1: OsABF1 promoter A1 probe (dsDNA)
DNA 1: AGCGTTAAAGCCATATGTTAAGAACGCGTTGACGAGAAGCTCGAGTTTGAGGTTATGGCC
DNA 2: GGCCATAACCTCAAACTCGAGCTTCTCGTCAACGCGTTCTTAACATATGGCTTTAACGCT
B2: OsVP1 promoter V1 probe (dsDNA)
DNA 1: TCAACCTACCATATCGCTCAAATGATTGTTGACCTGTAACACCCAACGACCTTTATTTAC
DNA 2: GTAAATAAAGGTCGTTGGGTGTTACAGGTCAACAATCATTTGAGCGATATGGTAGGTTGA
B3: OsVP1 promoter V3 probe (dsDNA)
DNA 1: CGGTCAAAACCAGCACGCGCCGAAATCCCGTACTTCCCACTGACACGTAGGCCCCACTGTCATTGACCG
DNA 2: CGGTCAATGACAGTGGGGCCTACGTGTCAGTGGGAAGTACGGGATTTCGGCGCGTGCTGGTTTTGACCG

Biological target: OsWRKY29-MBP (Oryza sativa (rice; cv. Hwayoung?), UniProt Q6IEQ2 1-288)
Test: EMSA; unlabeled probe competes dose-dependently; LightShift Chemiluminescent EMSA kit binding buffer, 1 ug protein in 20 ul, room temperature, 30 min; 6.5% native PAGE, 0.5x TBE; salt and pH not stated
Conditions: protein: recombinant; tags: MBP (pMAL-c2x fusion); blunt

Sequence of OsWRKY29-MBP (Q6IEQ2 entry or part of it): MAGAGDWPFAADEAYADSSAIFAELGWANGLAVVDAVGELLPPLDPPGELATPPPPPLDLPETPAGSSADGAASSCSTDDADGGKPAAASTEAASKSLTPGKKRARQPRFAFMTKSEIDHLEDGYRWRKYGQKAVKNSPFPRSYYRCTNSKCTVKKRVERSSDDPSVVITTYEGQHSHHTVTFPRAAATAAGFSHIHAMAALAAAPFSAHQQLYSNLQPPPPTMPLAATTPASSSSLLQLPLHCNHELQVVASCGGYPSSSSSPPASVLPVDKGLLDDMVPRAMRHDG

Row | Binder | binding result
1 | B1 | binds
2 | B2 | binds
3 | B3 | binds
